{"source": "patent US20110269680A1", "about": "(PANACEA BIOTEC, published 2011)", "note": "Numbered stars: 1 amine (or outer) side, 2 acyl side, 3 side chain; on linkers, the order of the positions; unused ones are H or OH. Square brackets hold non-standard residues; d marks the D form. Ends that are not written are not given here. X2 = 2‑amino‑1‑O‑methyl‑2‑deoxy‑alpha‑D‑glucopyranuronic acid, CO[C@H]1O[C@H](C(=O)[*:2])[C@@H](O)[C@H](O)[C@H]1N[*:1]; 2Furoyl(5-aminomethyl) = O=C(c1ccc(CN[*:1])o1)[*:2]; Aib = CC(C)(N)C(=O)O"}
{"target": "GLP-1 receptor", "assay": "cell-based or functional assay", "units": {"EC50, Receptor Functional assay (intracellular cAMP in CHO/GLP-1R cells)": "nM"}}
{"binder": "H[2Furoyl(5-aminomethyl)]EGTFTSDVSSYLEGQAAKEFIAWLVKGR-NH2", "note": "[Seq ID No. 03]", "EC50, Receptor Functional assay (intracellular cAMP in CHO/GLP-1R cells)": 0.061}
{"binder": "H[2Furoyl(5-aminomethyl)]EGTFTSDVSSYLEGQAAKEFIAWLVKGRG-NH2", "note": "[Seq ID No. 01]", "EC50, Receptor Functional assay (intracellular cAMP in CHO/GLP-1R cells)": 0.103}
{"binder": "H[2Furoyl(5-aminomethyl)]EGTFTSD[Aib]SSYLEGQAAKEFI[Aib]WLVKGR-NH2 (N-terminus assumed; SMILES CC[C@H](C)[C@H](NC(=O)[C@H](Cc1ccccc1)NC(=O)[C@H](CCC(=O)O)NC(=O)[C@H](CCCCN)NC(=O)[C@H](C)NC(=O)[C@H](C)NC(=O)[C@H](CCC(N)=O)NC(=O)CNC(=O)[C@H](CCC(=O)O)NC(=O)[C@H](CC(C)C)NC(=O)[C@H](Cc1ccc(O)cc1)NC(=O)[C@H](CO)NC(=O)[C@H](CO)NC(=O)C(C)(C)NC(=O)[C@H](CC(=O)O)NC(=O)[C@H](CO)NC(=O)[C@@H](NC(=O)[C@H](Cc1ccccc1)NC(=O)[C@@H](NC(=O)CNC(=O)[C@H](CCC(=O)O)NC(=O)c1ccc(CNC(=O)[C@@H](N)Cc2c[nH]cn2)o1)[C@@H](C)O)[C@@H](C)O)C(=O)NC(C)(C)C(=O)N[C@@H](Cc1c[nH]c2ccccc12)C(=O)N[C@@H](CC(C)C)C(=O)N[C@H](C(=O)N[C@@H](CCCCN)C(=O)NCC(=O)N[C@@H](CCCNC(=N)N)C(N)=O)C(C)C)", "note": "[Seq ID No. 04]", "EC50, Receptor Functional assay (intracellular cAMP in CHO/GLP-1R cells)": 0.072}
{"binder": "H[2Furoyl(5-aminomethyl)]GTFTSDVSSYLEGQAAKEFIAWLVKGR-NH2 (N-terminus assumed; SMILES CC[C@H](C)[C@H](NC(=O)[C@H](Cc1ccccc1)NC(=O)[C@H](CCC(=O)O)NC(=O)[C@H](CCCCN)NC(=O)[C@H](C)NC(=O)[C@H](C)NC(=O)[C@H](CCC(N)=O)NC(=O)CNC(=O)[C@H](CCC(=O)O)NC(=O)[C@H](CC(C)C)NC(=O)[C@H](Cc1ccc(O)cc1)NC(=O)[C@H](CO)NC(=O)[C@H](CO)NC(=O)[C@@H](NC(=O)[C@H](CC(=O)O)NC(=O)[C@H](CO)NC(=O)[C@@H](NC(=O)[C@H](Cc1ccccc1)NC(=O)[C@@H](NC(=O)CNC(=O)c1ccc(CNC(=O)[C@@H](N)Cc2c[nH]cn2)o1)[C@@H](C)O)[C@@H](C)O)C(C)C)C(=O)N[C@@H](C)C(=O)N[C@@H](Cc1c[nH]c2ccccc12)C(=O)N[C@@H](CC(C)C)C(=O)N[C@H](C(=O)N[C@@H](CCCCN)C(=O)NCC(=O)N[C@@H](CCCNC(=N)N)C(N)=O)C(C)C)", "note": "[Seq ID No. 08]", "EC50, Receptor Functional assay (intracellular cAMP in CHO/GLP-1R cells)": 0.601}
{"binder": "HXEGTFTSDXSSYLEGQAAKEFIXWLVKGRG (Xaa1 at position 2 is furan aminoacid (5-aminomethyl-furan-2 carboxylic acid); Xaa2 at position 10 and Xaa3 at position 24 are dialkylated aminoacid (alpha-aminoisobutyric acid); C-terminal amide (Gly-NH2))", "note": "[Seq ID No. 09]", "EC50, Receptor Functional assay (intracellular cAMP in CHO/GLP-1R cells)": 1}
{"binder": "H[X2]GTFTSDVSSYLEGQAAKEFIAWLVKGR-NH2 (N-terminus assumed; SMILES CC[C@H](C)[C@H](NC(=O)[C@H](Cc1ccccc1)NC(=O)[C@H](CCC(=O)O)NC(=O)[C@H](CCCCN)NC(=O)[C@H](C)NC(=O)[C@H](C)NC(=O)[C@H](CCC(N)=O)NC(=O)CNC(=O)[C@H](CCC(=O)O)NC(=O)[C@H](CC(C)C)NC(=O)[C@H](Cc1ccc(O)cc1)NC(=O)[C@H](CO)NC(=O)[C@H](CO)NC(=O)[C@@H](NC(=O)[C@H](CC(=O)O)NC(=O)[C@H](CO)NC(=O)[C@@H](NC(=O)[C@H](Cc1ccccc1)NC(=O)[C@@H](NC(=O)CNC(=O)[C@H]1O[C@H](OC)[C@H](NC(=O)[C@@H](N)Cc2c[nH]cn2)[C@@H](O)[C@@H]1O)[C@@H](C)O)[C@@H](C)O)C(C)C)C(=O)N[C@@H](C)C(=O)N[C@@H](Cc1c[nH]c2ccccc12)C(=O)N[C@@H](CC(C)C)C(=O)N[C@H](C(=O)N[C@@H](CCCCN)C(=O)NCC(=O)N[C@@H](CCCNC(=N)N)C(N)=O)C(C)C)", "note": "[Seq ID No. 07]", "EC50, Receptor Functional assay (intracellular cAMP in CHO/GLP-1R cells)": 0.056}
{"binder": "HXGTFTSDVSSYLEGQAAKEFIAWLVKXR (Xaa1 at position 2 is furan aminoacid (5-aminomethyl-furan-2 carboxylic acid); Xaa2 at position 28 is dialkylated aminoacid (alpha-aminoisobutyric acid); C-terminal amide (Arg-NH2))", "note": "[Seq ID No. 11]", "EC50, Receptor Functional assay (intracellular cAMP in CHO/GLP-1R cells)": 0.102}
{"binder": "HGEGTFTSDXSSYLEGQAAKEFIXWLVKGR (Xaa1 at position 10 and Xaa2 at position 24 are dialkylated aminoacid (alpha-aminoisobutyric acid); C-terminal amide (Arg-NH2))", "note": "[Seq ID No. 05]", "EC50, Receptor Functional assay (intracellular cAMP in CHO/GLP-1R cells)": 0.083}
{"binder": "H[X2]EGTFTSDVSSYLEGQAAKEFIAWLVKGR-NH2", "note": "[Seq ID No. 06]", "EC50, Receptor Functional assay (intracellular cAMP in CHO/GLP-1R cells)": 0.838}
{"binder": "H[2Furoyl(5-aminomethyl)]GTFTSDVLSYQEGQAAKLFIEWLVKGR-NH2", "note": "[Seq ID No. 12]", "EC50, Receptor Functional assay (intracellular cAMP in CHO/GLP-1R cells)": 2.24}
{"binder": "H[2Furoyl(5-aminomethyl)]GTFTSDVSSYLEGQAAKEFIAWLVKGRG-NH2 (N-terminus assumed; SMILES CC[C@H](C)[C@H](NC(=O)[C@H](Cc1ccccc1)NC(=O)[C@H](CCC(=O)O)NC(=O)[C@H](CCCCN)NC(=O)[C@H](C)NC(=O)[C@H](C)NC(=O)[C@H](CCC(N)=O)NC(=O)CNC(=O)[C@H](CCC(=O)O)NC(=O)[C@H](CC(C)C)NC(=O)[C@H](Cc1ccc(O)cc1)NC(=O)[C@H](CO)NC(=O)[C@H](CO)NC(=O)[C@@H](NC(=O)[C@H](CC(=O)O)NC(=O)[C@H](CO)NC(=O)[C@@H](NC(=O)[C@H](Cc1ccccc1)NC(=O)[C@@H](NC(=O)CNC(=O)c1ccc(CNC(=O)[C@@H](N)Cc2c[nH]cn2)o1)[C@@H](C)O)[C@@H](C)O)C(C)C)C(=O)N[C@@H](C)C(=O)N[C@@H](Cc1c[nH]c2ccccc12)C(=O)N[C@@H](CC(C)C)C(=O)N[C@H](C(=O)N[C@@H](CCCCN)C(=O)NCC(=O)N[C@@H](CCCNC(=N)N)C(=O)NCC(N)=O)C(C)C)", "note": "[Seq ID No. 02]", "EC50, Receptor Functional assay (intracellular cAMP in CHO/GLP-1R cells)": 0.043}
{"binder": "H[2Furoyl(5-aminomethyl)]GTFTSD[Aib]SSYLEGQAAKEFI[Aib]WLVKGRG-NH2 (N-terminus assumed; SMILES CC[C@H](C)[C@H](NC(=O)[C@H](Cc1ccccc1)NC(=O)[C@H](CCC(=O)O)NC(=O)[C@H](CCCCN)NC(=O)[C@H](C)NC(=O)[C@H](C)NC(=O)[C@H](CCC(N)=O)NC(=O)CNC(=O)[C@H](CCC(=O)O)NC(=O)[C@H](CC(C)C)NC(=O)[C@H](Cc1ccc(O)cc1)NC(=O)[C@H](CO)NC(=O)[C@H](CO)NC(=O)C(C)(C)NC(=O)[C@H](CC(=O)O)NC(=O)[C@H](CO)NC(=O)[C@@H](NC(=O)[C@H](Cc1ccccc1)NC(=O)[C@@H](NC(=O)CNC(=O)c1ccc(CNC(=O)[C@@H](N)Cc2c[nH]cn2)o1)[C@@H](C)O)[C@@H](C)O)C(=O)NC(C)(C)C(=O)N[C@@H](Cc1c[nH]c2ccccc12)C(=O)N[C@@H](CC(C)C)C(=O)N[C@H](C(=O)N[C@@H](CCCCN)C(=O)NCC(=O)N[C@@H](CCCNC(=N)N)C(=O)NCC(N)=O)C(C)C)", "note": "[Seq ID No. 10]", "EC50, Receptor Functional assay (intracellular cAMP in CHO/GLP-1R cells)": 3.38}
